Laboratory results: patent US20200087364A1 (IMMATICS BIOTECHNOLOGIES, published 2020)

molecular target: T1, HLA-A*01:01 (human); test: UV-ligand exchange, anti-b2m ELISA
T1 construct: MHC class I monomer first loaded with a UV-sensitive peptide (not identified) that is cleaved by UV irradiation and exchanged for the tested peptide; captured on streptavidin plates, detected with anti-β2m; also called peptide-receptive MHC molecules
Outline: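 Peptide–MHC complexes made by UV-ligand exchange of a UV-cleavable peptide; exchange yield measured by ELISA on streptavidin-coated plates, samples diluted 100-fold, 1 h 37 °C. Detection with 2 ug/ml HRP anti-β2m, TMB, A450; refolded HLA-A*02:01/MLA-001 monomer standards 15-500 ng/ml.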

First: ASDLEPRELLSY
Second: YEDHFPLLF
The peptide exchange yield of the first is higher: 50 to 75% for the first, 20 to 50% for the second.

ASDVDTLLK and LTDSTTRTTY fall in the same range of peptide exchange yield: 50 to 75% for the first, 50 to 75% for the second.

Compared with QVWGGQPVY, FSEPFHLIVSY is higher in peptide exchange yield: 10 to 20% for the first, > 75% for the second.

ETEPERHLGSY and TSDQLGYSY fall in the same range of peptide exchange yield: 50 to 75% for the first, 50 to 75% for the second.

HLKILSPIY and QTDVERIKDTY fall in the same range of peptide exchange yield: 50 to 75% for the first, 50 to 75% for the second.

First: EVYDGREHSAY
Second: FTDSQGNDIK
The peptide exchange yield of the first is lower: 20 to 50% for the first, 50 to 75% for the second.

VSELVTTGHY and FTTQDELLVY fall in the same range of peptide exchange yield: 50 to 75% for the first, 50 to 75% for the second.

First: KSWSQSSSLMY
Second: TSRAANIPGY
The peptide exchange yield of the first is higher: 50 to 75% for the first, 10 to 20% for the second.

HSDLLEDSKY and SSDIVALGGFLY fall in the same range of peptide exchange yield: 50 to 75% for the first, 50 to 75% for the second.

Compared with KEVDPAGHSYI, YLENSASWY is higher in peptide exchange yield: 20 to 50% for the first, > 75% for the second.

First: ELCPLPGTSAY
Second: YYYDTHTNTY
The peptide exchange yield of the first is higher: 20 to 50% for the first, 10 to 20% for the second.

Compared with MTEKFLFLY, ARDPITFSF is lower in peptide exchange yield: > 75% for the first, 20 to 50% for the second.

Compared with YTELVEEKY, TQHFVQENY is lower in peptide exchange yield: 50 to 75% for the first, 20 to 50% for the second.

Compared with AFDDIATYF, YLEDRPLSQLY is higher in peptide exchange yield: 20 to 50% for the first, > 75% for the second.

Compared with TTDDTTAMASAS, YTAHVGYSMY is higher in peptide exchange yield: 20 to 50% for the first, > 75% for the second.

Compared with RIEAIRAEY, LTEKSHIRY is higher in peptide exchange yield: 20 to 50% for the first, 50 to 75% for the second.

First: LMEKEDYHSLY
Second: FTSDTGLEY
The peptide exchange yield of the first is lower: 50 to 75% for the first, > 75% for the second.

First: IPSFNEMVY
Second: EVDIHTIHY
The peptide exchange yield of the first is lower: 20 to 50% for the first, 50 to 75% for the second.

Compared with QSLPEFGLTY, QLDSAVKNLY is higher in peptide exchange yield: 20 to 50% for the first, 50 to 75% for the second.

Compared with ILKGGSGTY, FMVIAGMPLFY is higher in peptide exchange yield: 20 to 50% for the first, 50 to 75% for the second.

TSEISQNALMY and STDSASYY cannot be ordered by peptide exchange yield: > 75% for the first, > 75% for the second.

First: WSDGVPLLY
Second: NLDPNKIY
The peptide exchange yield of the first is higher: > 75% for the first, 10 to 20% for the second.

First: ASDDVRIEVGLY
Second: ASDPASSTSCY
The peptide exchange yield of the first is higher: > 75% for the first, 50 to 75% for the second.

First: EMEQQSQEY
Second: TTQDELLVY
The peptide exchange yield of the first is higher: > 75% for the first, 50 to 75% for the second.

First: FTDYELKAY
Second: VTEYAEEIYQY
The peptide exchange yield of the first is higher: > 75% for the first, 50 to 75% for the second.

First: VDPASNTY
Second: SSDFDPLVY
The peptide exchange yield of the first is lower: 20 to 50% for the first, > 75% for the second.

STEERRLNY and YSDLHTPGRY fall in the same range of peptide exchange yield: 50 to 75% for the first, 50 to 75% for the second.

First: DTEFHGGLHY
Second: YYDLVESTF
The peptide exchange yield of the first is higher: 50 to 75% for the first, 10 to 20% for the second.

First: ESEMIKFASYY
Second: VTDSTTKIAY
The peptide exchange yield of the first is higher: > 75% for the first, 50 to 75% for the second.

First: SSDNYEHWLY
Second: QVPLDCVLY
The peptide exchange yield of the first is higher: > 75% for the first, 20 to 50% for the second.

GSFSIQHTY and GSNPARYEF fall in the same range of peptide exchange yield: 20 to 50% for the first, 20 to 50% for the second.

TSEISQNALMYY and QLDSTLDSY fall in the same range of peptide exchange yield: 50 to 75% for the first, 50 to 75% for the second.

QSLPEFGLTYY and LPDPNVQKY fall in the same range of peptide exchange yield: 20 to 50% for the first, 20 to 50% for the second.

RSDPGGGGLAYAAY and NSAINPLIY cannot be ordered by peptide exchange yield: > 75% for the first, > 75% for the second.

ITDEDEDMLSY and NVDQNQNSY fall in the same range of peptide exchange yield: 50 to 75% for the first, 50 to 75% for the second.

Compared with ATEGDVLNY, WSQSSSLMY is higher in peptide exchange yield: 50 to 75% for the first, > 75% for the second.
